From paper PMC9352680, “A comprehensive thermodynamic model for RNA binding by the Saccharomyces cerevisiae Pumilio protein PUF4”

T1: PUF4 RNA-binding domain (Saccharomyces cerevisiae, UniProt P25339 537-888)
T1 sequence: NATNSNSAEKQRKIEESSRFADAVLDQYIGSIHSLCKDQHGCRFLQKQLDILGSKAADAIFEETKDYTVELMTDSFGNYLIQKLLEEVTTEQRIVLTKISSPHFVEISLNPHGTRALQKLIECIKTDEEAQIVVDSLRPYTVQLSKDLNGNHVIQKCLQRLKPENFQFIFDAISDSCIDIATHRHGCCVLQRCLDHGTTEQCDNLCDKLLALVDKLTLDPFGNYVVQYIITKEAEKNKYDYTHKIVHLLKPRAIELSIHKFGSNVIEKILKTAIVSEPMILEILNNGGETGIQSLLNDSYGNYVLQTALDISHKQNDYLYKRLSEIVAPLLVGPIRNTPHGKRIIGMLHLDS


Biological target: T1, PUF4 RNA-binding domain
Experiment: Mg; RNA-MaP; 20 mM Na-HEPES pH 7.4, 30 mM KOAc, 0.75 mM MgCl2, 0.1% Tween-20, 5% glycerol, 0.1 mg/mL BSA, 2 mM DTT; 25 C; 0.0125-409.6 nM protein
Conditions: tags: N-His6-TEV cleaved; C-SNAP kept, Cy3B-labelled; label: tethered on chip by stalled RNA polymerase

Row | Binder | Kd
1 | UCUCUUUGUUUUUUUAUCUCUU (ssRNA) [Ib_S1_P5E.1_K5.1_C5.1_H5.1_[A4T]_A5.1_[A7T]_F5.1_T5.1] | 142 nM
2 | UCUCUUUGUAGCAUUAUCUCUU (ssRNA) [Ib_S1_P5E.1_K5.1_C5.1_H5.1_A5.1_[T5G]_[T6C]_F5.1_T5.1] | 15.3 nM
3 | UCUCUUUGUACAAUUAUCUCUU (ssRNA) [Ic_S1_P5E.1_K5.1_C5.1_H5.1_A5.1_[T5C]_[T6A]_F5.1_T5.1] | 5.07 nM
4 | Id_iii_S2_P5E.5_K5.1_C5.3_H5.1_A5.1_F5.1_T5.2_[T11A] (ssRNA) RNA: UUUGAUUAAUAUGAUAUCGUUCUUUCUUCUUGUAUUAUUAAAUUCUUUCUCGAUAUCAUAUUAAUCUUU | 3.88 nM
5 | Id_iii_S2_P5E.7_K5.3_C5.3_[C-2A]_H5.3_A5.1_F5.1_T5.2 (ssRNA) RNA: UUUGAUUAAUAUGAUAUCGUUCUUUCUUAUACACUUAUUAUAUUCUUUCUCGAUAUCAUAUUAAUCUUU | 579 nM
6 | Id_iii_S2_P5E.5_K5.1_C5.3_H5.1_A5.1_F5.1_T5.2_[A12C] (ssRNA) RNA: UUUGAUUAAUAUGAUAUCGUUCUUUCUUCUUGUAUUAUUAUCUUCUUUCUCGAUAUCAUAUUAAUCUUU | 1.64 nM
7 | Id_iii_S2_P5E.7_K5.3_C5.3_[T-3A]_H5.3_A5.1_F5.1_T5.2 (ssRNA) RNA: UUUGAUUAAUAUGAUAUCGUUCUUUCUACUACACUUAUUAUAUUCUUUCUCGAUAUCAUAUUAAUCUUU | 709 nM
8 | Id_iii_S2_P5E.7_K5.3_C5.3_[T-1G]_H5.3_A5.1_F5.1_T5.2 (ssRNA) RNA: UUUGAUUAAUAUGAUAUCGUUCUUUCUUCGACACUUAUUAUAUUCUUUCUCGAUAUCAUAUUAAUCUUU | 963 nM
9 | Id_iii_S2_P5E.5_K5.1_C5.3_H5.1_A5.1_F5.1_T5.2_[A12G] (ssRNA) RNA: UUUGAUUAAUAUGAUAUCGUUCUUUCUUCUUGUAUUAUUAUGUUCUUUCUCGAUAUCAUAUUAAUCUUU | 2.58 nM
10 | Id_iii_S2_P5E.7_K5.3_C5.3_H5.3_A5.1_F5.1_T5.2_[T11C] (ssRNA) RNA: UUUGAUUAAUAUGAUAUCGUUCUUUCUUCUACACUUAUUACAUUCUUUCUCGAUAUCAUAUUAAUCUUU | 1770 nM
11 | Id_iii_S2_P5E.5_K5.1_C5.3_H5.1_A5.1_F5.1_T5.2_[A12T] (ssRNA) RNA: UUUGAUUAAUAUGAUAUCGUUCUUUCUUCUUGUAUUAUUAUUUUCUUUCUCGAUAUCAUAUUAAUCUUU | 1.59 nM
12 | Id_iii_S2_P5E.7_K5.3_C5.3_[T-1A]_H5.3_A5.1_F5.1_T5.2 (ssRNA) RNA: UUUGAUUAAUAUGAUAUCGUUCUUUCUUCAACACUUAUUAUAUUCUUUCUCGAUAUCAUAUUAAUCUUU | 823 nM
13 | Id_iii_S2_P5E.7_K5.3_C5.3_[T-1C]_H5.3_A5.1_F5.1_T5.2 (ssRNA) RNA: UUUGAUUAAUAUGAUAUCGUUCUUUCUUCCACACUUAUUAUAUUCUUUCUCGAUAUCAUAUUAAUCUUU | 838 nM
14 | Id_iii_S2_P5E.7_K5.3_C5.3_[C-2G]_H5.3_A5.1_F5.1_T5.2 (ssRNA) RNA: UUUGAUUAAUAUGAUAUCGUUCUUUCUUGUACACUUAUUAUAUUCUUUCUCGAUAUCAUAUUAAUCUUU | 2.01 nM
15 | Id_iii_S2_P5E.6_K5.2_C5.3_H5.2_A5.1_F5.1_T5.2_[A12T] (ssRNA) RNA: UUUGAUUAAUAUGAUAUCGUUCUUUCUUCUUAUAUUAUUAUUUUCUUUCUCGAUAUCAUAUUAAUCUUU | 42.1 nM
16 | Id_iii_S2_P5E.7_K5.3_C5.3_H5.3_A5.1_F5.1_T5.2_[A12C] (ssRNA) RNA: UUUGAUUAAUAUGAUAUCGUUCUUUCUUCUACACUUAUUAUCUUCUUUCUCGAUAUCAUAUUAAUCUUU | > 2300 nM
17 | UCUCUUUGUACGAUUAUCUCUU (ssRNA) [Ib_S1_P5E.1_K5.1_C5.1_H5.1_A5.1_[T5C]_[T6G]_F5.1_T5.1] | 9.71 nM
18 | Id_iii_S2_P4E.5_K4.1_C4.3_H4.1_A4.1_F4.1_T4.2_[G10C] (ssRNA) RNA: UUUGAUUAAUAUGAUAUCGUUCUUUCUUCUUGUAUAUUACUUUCUUUCUCGAUAUCAUAUUAAUCUUU | 0.519 nM
19 | Id_iii_S2_P4E.8_K4.4_C4.3_H4.1_A4.2_F4.1_T4.2_[T11C] (ssRNA) RNA: UUUGAUUAAUAUGAUAUCGUUCUUUCUUCUUGUAUUUUAGCUUCUUUCUCGAUAUCAUAUUAAUCUUU | 1.42 nM
20 | Id_iii_S2_P4E.5_K4.1_C4.3_H4.1_A4.1_F4.1_T4.2_[G10T] (ssRNA) RNA: UUUGAUUAAUAUGAUAUCGUUCUUUCUUCUUGUAUAUUAUUUUCUUUCUCGAUAUCAUAUUAAUCUUU | 0.203 nM
21 | Id_iii_S2_P4E.9_K4.5_C4.3_[T-1G]_H4.1_A4.2_F4.2_T4.2 (ssRNA) RNA: UUUGAUUAAUAUGAUAUCGUUCUUUCUUCGUGUAUUUAAGUUUCUUUCUCGAUAUCAUAUUAAUCUUU | 502 nM
22 | Id_iii_S2_P4E.6_K4.2_C4.3_H4.2_A4.1_F4.1_T4.2_[G10T] (ssRNA) RNA: UUUGAUUAAUAUGAUAUCGUUCUUUCUUCUUAUAUAUUAUUUUCUUUCUCGAUAUCAUAUUAAUCUUU | 3.84 nM
23 | Id_iii_S2_P4E.6_K4.2_C4.3_[T-1A]_H4.2_A4.1_F4.1_T4.2 (ssRNA) RNA: UUUGAUUAAUAUGAUAUCGUUCUUUCUUCAUAUAUAUUAGUUUCUUUCUCGAUAUCAUAUUAAUCUUU | 6.83 nM

Row | Binder | Kd
24 | Id_iii_S2_P4E.6_K4.2_C4.3_[C-2G]_H4.2_A4.1_F4.1_T4.2 (ssRNA) RNA: UUUGAUUAAUAUGAUAUCGUUCUUUCUUGUUAUAUAUUAGUUUCUUUCUCGAUAUCAUAUUAAUCUUU | 13.3 nM
25 | Id_iii_S2_P4E.6_K4.2_C4.3_[C-2T]_H4.2_A4.1_F4.1_T4.2 (ssRNA) RNA: UUUGAUUAAUAUGAUAUCGUUCUUUCUUUUUAUAUAUUAGUUUCUUUCUCGAUAUCAUAUUAAUCUUU | 20.2 nM
26 | Id_iii_S2_P4E.6_K4.2_C4.3_H4.2_A4.1_F4.1_T4.2_[G10C] (ssRNA) RNA: UUUGAUUAAUAUGAUAUCGUUCUUUCUUCUUAUAUAUUACUUUCUUUCUCGAUAUCAUAUUAAUCUUU | 5.27 nM
27 | Id_iii_S2_P4E.7_K4.3_C4.3_H4.3_A4.1_F4.1_T4.2_[G10C] (ssRNA) RNA: UUUGAUUAAUAUGAUAUCGUUCUUUCUUCUACACUAUUACUUUCUUUCUCGAUAUCAUAUUAAUCUUU | 494 nM
28 | Id_iii_S2_P4E.8_K4.4_C4.3_[C-2T]_H4.1_A4.2_F4.1_T4.2 (ssRNA) RNA: UUUGAUUAAUAUGAUAUCGUUCUUUCUUUUUGUAUUUUAGUUUCUUUCUCGAUAUCAUAUUAAUCUUU | 0.936 nM
29 | Id_iii_S2_P4E.8_K4.4_C4.3_H4.1_A4.2_F4.1_T4.2_[G10T] (ssRNA) RNA: UUUGAUUAAUAUGAUAUCGUUCUUUCUUCUUGUAUUUUAUUUUCUUUCUCGAUAUCAUAUUAAUCUUU | 0.967 nM
30 | Id_iii_S2_P4E.8_K4.4_C4.3_H4.1_A4.2_F4.1_T4.2_[G10C] (ssRNA) RNA: UUUGAUUAAUAUGAUAUCGUUCUUUCUUCUUGUAUUUUACUUUCUUUCUCGAUAUCAUAUUAAUCUUU | 2.77 nM
31 | Id_iii_S2_P4E.7_K4.3_C4.3_H4.3_A4.1_F4.1_T4.2_[G10T] (ssRNA) RNA: UUUGAUUAAUAUGAUAUCGUUCUUUCUUCUACACUAUUAUUUUCUUUCUCGAUAUCAUAUUAAUCUUU | 486 nM
32 | Id_iii_S2_P4E.8_K4.4_C4.3_[T-1A]_H4.1_A4.2_F4.1_T4.2 (ssRNA) RNA: UUUGAUUAAUAUGAUAUCGUUCUUUCUUCAUGUAUUUUAGUUUCUUUCUCGAUAUCAUAUUAAUCUUU | 1.28 nM
33 | Id_iii_S2_P4E.8_K4.4_C4.3_[C-2A]_H4.1_A4.2_F4.1_T4.2 (ssRNA) RNA: UUUGAUUAAUAUGAUAUCGUUCUUUCUUAUUGUAUUUUAGUUUCUUUCUCGAUAUCAUAUUAAUCUUU | 1.76 nM
34 | Id_iii_S2_P4E.6_K4.2_C4.3_[T-3C]_H4.2_A4.1_F4.1_T4.2 (ssRNA) RNA: UUUGAUUAAUAUGAUAUCGUUCUUUCUCCUUAUAUAUUAGUUUCUUUCUCGAUAUCAUAUUAAUCUUU | 3.56 nM
35 | Id_iii_S2_P4E.8_K4.4_C4.3_[T-3C]_H4.1_A4.2_F4.1_T4.2 (ssRNA) RNA: UUUGAUUAAUAUGAUAUCGUUCUUUCUCCUUGUAUUUUAGUUUCUUUCUCGAUAUCAUAUUAAUCUUU | 0.923 nM
36 | Id_iii_S2_P4E.5_K4.1_C4.3_H4.1_A4.1_F4.1_T4.2_[T11C] (ssRNA) RNA: UUUGAUUAAUAUGAUAUCGUUCUUUCUUCUUGUAUAUUAGCUUCUUUCUCGAUAUCAUAUUAAUCUUU | 0.401 nM
37 | Id_iii_S2_P4E.6_K4.2_C4.3_H4.2_A4.1_F4.1_T4.2_[G10A] (ssRNA) RNA: UUUGAUUAAUAUGAUAUCGUUCUUUCUUCUUAUAUAUUAAUUUCUUUCUCGAUAUCAUAUUAAUCUUU | 10.7 nM
38 | Id_iii_S2_P4E.7_K4.3_C4.3_[T-1C]_H4.3_A4.1_F4.1_T4.2 (ssRNA) RNA: UUUGAUUAAUAUGAUAUCGUUCUUUCUUCCACACUAUUAGUUUCUUUCUCGAUAUCAUAUUAAUCUUU | > 2300 nM
39 | Id_iii_S2_P4E.6_K4.2_C4.3_[T-1G]_H4.2_A4.1_F4.1_T4.2 (ssRNA) RNA: UUUGAUUAAUAUGAUAUCGUUCUUUCUUCGUAUAUAUUAGUUUCUUUCUCGAUAUCAUAUUAAUCUUU | 10.9 nM
40 | Id_iii_S2_P4E.7_K4.3_C4.3_[T-1A]_H4.3_A4.1_F4.1_T4.2 (ssRNA) RNA: UUUGAUUAAUAUGAUAUCGUUCUUUCUUCAACACUAUUAGUUUCUUUCUCGAUAUCAUAUUAAUCUUU | > 2300 nM
41 | Id_iii_S2_P4E.7_K4.3_C4.3_H4.3_A4.1_F4.1_T4.2_[T11C] (ssRNA) RNA: UUUGAUUAAUAUGAUAUCGUUCUUUCUUCUACACUAUUAGCUUCUUUCUCGAUAUCAUAUUAAUCUUU | > 2300 nM
42 | Id_iii_S2_P4E.9_K4.5_C4.3_[T-1A]_H4.1_A4.2_F4.2_T4.2 (ssRNA) RNA: UUUGAUUAAUAUGAUAUCGUUCUUUCUUCAUGUAUUUAAGUUUCUUUCUCGAUAUCAUAUUAAUCUUU | 554 nM
43 | Id_iii_S2_P4E.9_K4.5_C4.3_H4.1_A4.2_F4.2_T4.2_[G10C] (ssRNA) RNA: UUUGAUUAAUAUGAUAUCGUUCUUUCUUCUUGUAUUUAACUUUCUUUCUCGAUAUCAUAUUAAUCUUU | 77.5 nM
44 | Id_iii_S2_P4E.5_K4.1_C4.3_H4.1_A4.1_F4.1_T4.2_[G10A] (ssRNA) RNA: UUUGAUUAAUAUGAUAUCGUUCUUUCUUCUUGUAUAUUAAUUUCUUUCUCGAUAUCAUAUUAAUCUUU | 0.37 nM
45 | Id_iii_S2_P4E.8_K4.4_C4.3_[C-2G]_H4.1_A4.2_F4.1_T4.2 (ssRNA) RNA: UUUGAUUAAUAUGAUAUCGUUCUUUCUUGUUGUAUUUUAGUUUCUUUCUCGAUAUCAUAUUAAUCUUU | 1.45 nM
